Biological target: T1, human CEACAM1 expressed on the cell surface (CEACAM1-Jurkat T cells); HEK293 cells transfected with human … (human, UniProt P13688 35-526)
T1 construct: whole, on cells; also called CCM1
T1 sequence (looked up): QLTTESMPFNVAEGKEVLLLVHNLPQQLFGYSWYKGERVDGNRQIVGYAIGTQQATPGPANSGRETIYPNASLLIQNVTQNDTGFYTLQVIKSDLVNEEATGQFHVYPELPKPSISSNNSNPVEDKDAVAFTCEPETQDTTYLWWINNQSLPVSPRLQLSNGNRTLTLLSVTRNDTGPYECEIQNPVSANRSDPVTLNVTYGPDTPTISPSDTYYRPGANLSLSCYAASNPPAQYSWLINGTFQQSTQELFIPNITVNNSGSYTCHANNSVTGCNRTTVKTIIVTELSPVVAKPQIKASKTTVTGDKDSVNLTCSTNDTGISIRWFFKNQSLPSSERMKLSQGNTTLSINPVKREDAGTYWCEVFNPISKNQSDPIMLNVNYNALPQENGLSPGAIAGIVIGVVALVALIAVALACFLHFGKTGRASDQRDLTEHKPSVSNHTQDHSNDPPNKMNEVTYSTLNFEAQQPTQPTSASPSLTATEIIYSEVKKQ
Experiment: flow cytometry on CEACAM1-Jurkat T cells; reference: the other clones (MFI 8,000)
Protocol: The CEACAM1-Jurkat T cells prepared above were treated with Fc block solution and incubated for 15 minutes. […] Herein, it is noted that the cell numbers were adjusted to 1×10⁵. The cells incubated with the antibodies were repeatedly subjected to the washing procedure of resuspending the cells in a FACS buffer and centrifuging the solution at 1,500 rpm.
PE-conjugated goat anti-human F(ab)₂; (Sigma; Cat. No. P8047)) was diluted in the FACS buffer at a volume ratio of 1:200, and then added to the cells at 100 μl/well. Cells were resuspended well and incubated at 4° C. for 30 minutes in a dark condition.
The cells incubated with the fixation buffer were repeatedly subjected to the washing procedure of resuspending the cells in a FACS buffer, centrifuging the solution at 1,500 rpm, and discarding the supernatant. The washed cells were resuspended in 200 μl of a FACS buffer, and the mean fluorescence intensities (MFIs) of the PE-labeled cells were monitored by a FACS LSR-Fortessa. All FACS analyses were conducted using the FlowJo software.

fold MFI against the other clones: 1.5 times
B1: 4R9_H4-n20 (antibody, human IgG4 S228P, lambda, V domains shown)
VH: EVQLLESGGGLVQPGGSLRLSCAASGFNFSNYAMSWVRQAPGKGLEWVSVISHGGGSIYYADSVKGRLTISRDNSKNTLYLQMNSLRAEDTAVYYCARDPTKGYAPTFDYWGQGTLVTVSS
VL: QSVLTQPPSASGTPGQRVTISCSGSSSNIGNNYVSWYQQLPGTAPKLLIYADSRRPSGVPDRFSGSKSGTSASLAISGLRSEDEADYYCGAWDLSLNGYVFGGGTKLTVLG
notes: also called C25-derived clone 4R9_H4-n20

Source: patent US20200109196A1 (MOGAM INSTITUTE FOR BIOMEDICAL RESEARCH, published 2020)
